Data published in PMC12613123, “Fabrication of Disposable Thin-Film Electrodes via Shadow Mask Technique for Sensitive Point-of-Care Detection of C‑Reactive Protein, a Sepsis Biomarker”.

Target: T1, C-reactive protein (CRP) (UniProt P02741 19-224)
T1 sequence: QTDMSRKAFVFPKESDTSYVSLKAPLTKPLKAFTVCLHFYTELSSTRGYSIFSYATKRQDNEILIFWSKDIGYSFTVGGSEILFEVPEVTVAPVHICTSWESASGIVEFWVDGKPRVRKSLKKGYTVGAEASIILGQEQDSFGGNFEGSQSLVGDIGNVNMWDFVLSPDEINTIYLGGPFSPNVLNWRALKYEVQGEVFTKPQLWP
Experiment: electrochemical aptasensor (CV, EIS); aptamer/MCH on gold thin-film electrode; ferro-/ferricyanide; CRP 0.02-0.9 ng/mL; Rct 1.78 to 2.8 kOhm; LOD 6.5 pg/mL (not a Kd); ferro-/ferricyanide redox couple; buffer, salt, pH and temperature not given in the held text (aptamer immobilization at 2-4 C)
Settings: chain copies: 5

B1: CRP aptamer (44 nt) (ssDNA)
DNA: GCCTGTAAGGTGGTCGGTGTGGCGAGTGTGTTAGGAGAGATTGC
modifications: 5' HO-(CH2)6-S-S-(CH2)6 thiol linker (TCEP reduced), immobilized on gold with MCH backfill
- binding result: binds
